Assay results as given in patent US20230406935A1 (F STAR THERAPEUTICS, published 2023).
Read-outs that look alike come from different tables or passages of the source.

Legend:
[1] = biological target: T1, Human PD-L1 expressed on cells (human, UniProt Q9NZQ7 19-290); assay: cell-based or functional assay
[2] = biological target: T1, Human PD-L1 expressed on cells; assay: cell-based or functional assay; remark: listed apart in the source
[3] = biological target: T2, Monomeric cynomolgus PD-L1 (Acro Biosciences PD1-C52H4) (cynomolgus, UniProt Q9NZQ7 19-238 (human entry)); assay: SPR Biacore T200, mock mAb^2 captured by anti-Fab on CM5, monomeric antigen in flow, 1:1 fit
T2 construct: also called cynomolgus monomeric PD-L1

[4] = biological target: T3, Monomeric His-tagged human PD-L1 (Acro biosystems PD1-H5229) (human, UniProt Q9NZQ7 19-238); assay: as above
T3 construct: also called hPD-L1-his; PD-L1-his

[5] = biological target: T4, Biotinylated hPD-L1-Fc-Avi (human, UniProt Q9NZQ7 19-238); assay: cell-based RBA (Example 8.3), blocking of hPD-L1-Fc-Avi binding to HEK293 hPD-1 cells
Protocol: (§1) The ability of the mock mAb² to block hPD-1/hPD-L1 and hPD-L1/hCD80 interactions was tested in cell-based Receptor Blocking Assays (RBA). […] The mix was incubated for another hour with HEK293 cells overexpressing either hPD-1 or hCD80.

[6] = biological target: T1, Human PD-L1 expressed on cells; assay: flow cytometry, HEK293 cells overexpressing the target, anti-human Fc 488
Protocol: (§2) Cell binding assays were performed by incubating the mock mAb² with either control HEK293 cells or HEK293 cells overexpressing hPD-L1 or cynomolgus PD-L1 cells for 1 hour at 4° C. Mock mAb² binding was subsequently detected using an anti-human Fc 488 detection antibody. Fluorescent signal intensities were measured using a FACS Canto flow cytometer (BD Biosciences).

[7] = biological target: T5, Cynomolgus PD-L1 expressed on HEK 293 cells (cynomolgus, UniProt Q9NZQ7 19-290 (human entry)); assay: as above
T5 construct: also called cell-expressed cynomolgus PD-L1
Protocol: as §2

[8] = biological target: T4, Biotinylated hPD-L1-Fc-Avi; assay: cell-based RBA (Example 8.3), blocking of hPD-L1-Fc-Avi binding to HEK293 hCD80 cells
Protocol: as §1

[9] = biological target: T3, Monomeric His-tagged human PD-L1 (Acro …); assay: SPR Biacore T200 as Example 5.1, anti-Fab capture, monomeric hPD-L1-his
Protocol: Fcab and mAb² binding to human PD-L1 was assessed by both BIAcore and in a cell binding assay. To measure the affinity of the clones to monomeric hPD-L1-his, the mAb² were captured using an anti-Fab antibody coated on a CM5 chip (GE 28-9582-20 AC) and Fcabs were captured using a Protein A chip (GE 29127556) using a Biacore T200 (GE). To minimize mass transport effects, the capture level was minimized to 200RU and a fast flow rate of 75 μl/min was used. […] The analysis of the data was done using the Biacore T200 evaluation software. Curves subtracted against a blank flow cell and a run with no antigen were analysed using a 1:1 fitting model with no bulk analysis and Rmax analysed locally.
The selected CH3 domain sequences were subcloned and expressed in “mock” (MSL109) mAb² format with the LALA mutation in the CH2 domain, as described in Example 4.2.1, for further screening.

[10] = biological target: T1, Human PD-L1 expressed on cells; assay: cell-based or functional assay; remark: listed apart in the source
[11] = biological target: T1, Human PD-L1 expressed on cells; assay: cell-based or functional assay; remark: listed apart in the source
[12] = biological target: T1, Human PD-L1 expressed on cells; assay: cell-based or functional assay; remark: listed apart in the source

T3 sequence (Q9NZQ7 19-238 limits assumed): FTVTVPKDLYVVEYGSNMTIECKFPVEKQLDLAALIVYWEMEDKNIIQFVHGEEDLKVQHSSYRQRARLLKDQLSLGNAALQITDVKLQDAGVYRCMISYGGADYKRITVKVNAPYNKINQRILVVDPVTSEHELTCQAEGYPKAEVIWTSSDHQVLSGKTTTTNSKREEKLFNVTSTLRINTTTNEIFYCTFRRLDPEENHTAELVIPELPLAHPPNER
T1 sequence (Q9NZQ7 19-290 limits assumed): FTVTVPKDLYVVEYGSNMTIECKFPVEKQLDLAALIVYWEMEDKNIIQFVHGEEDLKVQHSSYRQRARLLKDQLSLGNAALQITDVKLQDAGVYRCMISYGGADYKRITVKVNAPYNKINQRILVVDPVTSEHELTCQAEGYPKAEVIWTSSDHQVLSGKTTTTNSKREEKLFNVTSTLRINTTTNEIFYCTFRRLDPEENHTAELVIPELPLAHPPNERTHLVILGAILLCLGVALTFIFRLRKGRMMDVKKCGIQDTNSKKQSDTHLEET
T4 sequence (Q9NZQ7 19-238 limits assumed): as the sequence (Q9NZQ7 19-238 limits assumed) above
T2 sequence (Q9NZQ7 other isoform, or with tags, fused parts or gaps limits assumed): as the sequence (Q9NZQ7 19-238 limits assumed) above, with A33T, A34S, S62N, R68Q, Q82R, F173L, T185A, T192I, H215L counted along it
T5 sequence (Q9NZQ7 other isoform, or with tags, fused parts or gaps limits assumed): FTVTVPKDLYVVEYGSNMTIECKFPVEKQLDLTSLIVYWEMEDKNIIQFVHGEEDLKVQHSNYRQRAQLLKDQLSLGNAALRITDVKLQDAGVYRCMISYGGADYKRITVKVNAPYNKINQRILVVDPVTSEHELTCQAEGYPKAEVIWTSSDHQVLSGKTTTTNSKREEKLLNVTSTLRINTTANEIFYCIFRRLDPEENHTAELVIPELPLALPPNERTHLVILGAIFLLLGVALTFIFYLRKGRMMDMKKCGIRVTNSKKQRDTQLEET

B1: Fcab FS17-33-116 with LALA mutation (designed binder)
chain: TCPPCPAPEAAGGPSVFLFPPKPKDTLMISRTPEVTCVVVDVSHEDPEVKFNWYVDGVEVHNAKTKPREEQYNSTYRVVSVLTVLHQDWLNGKEYKCKVSNKALPAPIEKTISKAKGQPREPQVYTLPPSRDESGYWVSLTCLVKGFYPSDIVVEWESNGEPQYWAKTTPPVLDSDGSFFLYSKLTVSNWRWQMDDFSCSVMHEALHNHYTQKSLSLSPGK
- DO11.10 T cell activation assay EC50 [1]: 0.28 nM
- DO11.10 T cell activity assay EC50 [2]: 0.28 nM

B2: FS17-33-548AA/MSL109 (bispecific antibody, human IgG1, kappa, L234A L235A)
heavy: EEQVLESGGGLVKPGGSLRLSCAASGFTFSPYSVFWVRQAPGKGLEWVSSINSDSTYKYYADSVKGRFTISRDNAENSIFLQMNSLRAEDTAVYYCARDRSYYAFSSGSLSDYYYGLDVWGQGTTVIVSSASTKGPSVFPLAPSSKSTSGGTAALGCLVKDYFPEPVTVSWNSGALTSGVHTFPAVLQSSGLYSLSSVVTVPSSSLGTQTYICNVNHKPSNTKVDKKVEPKSCDKTHTCPPCPAPEAAGGPSVFLFPPKPKDTLMISRTPEVTCVVVDVSHEDPEVKFNWYVDGVEVHNAKTKPREEQYNSTYRVVSVLTVLHQDWLNGKEYKCKVSNKALPAPIEKTISKAKGQPREPQVYTLPPSRDEEGYWVSLTCLVKGFYPSDIAVEWESNGEPQYWAKTTPPVLDSDGSFFLYSKLTVSNWRWQLGDVFSCSVMHEALHNHYTQKSLSLSPGK
light: DIVMTQSPLSLSVTPGEPASISCRSSQSLLHTNGYNYLDWYVQKPGQSPQLLIYLASNRASGVPDRFSGSGSGTDFTLKISRVETEDVGVYYCMQALQIPRTFGQGTKVEIKRTVAAPSVFIFPPSDEQLKSGTASVVCLLNNFYPREAKVQWKVDNALQSGNSQESVTEQDSKDSTYSLSSTLTLSKADYEKHKVYACEVTHQGLSSPVTKSFNRGEC
- Kd [3]: 0.45 nM
- Kd [4]: 0.6 nM
- EC50 [5]: 43.2 nM
- EC50 [6]: 1.5 nM
- EC50 [7]: 2.1 nM
- EC50 [8]: 130 nM
- Kd [9]: 0.43 nM
- koff [9]: 0.000437 s⁻¹
- DO11.10 EC50 [10]: 7.59 nM
- DO11.10 EC50 [11]: 8.51 nM

B3: FS17-33-116/4420 mAb^2 (bispecific antibody, human IgG1, kappa, L234A L235A, V domains shown)
VH: EVKLDETGGGLVQPGRPMKLSCVASGFTFSDYWMNWVRQSPEKGLEWVAQIRNKPYNYETYYSDSVKGRFTISRDDSKSSVYLQMNNLRVEDMGIYYCTGSYYGMDYWGQGTSVTVSS
VL: DVVMTQTPLSLPVSLGDQASISCRSSQSLVHSNGNTYLRWYLQKPGQSPKVLIYKVSNRFSGVPDRFSGSGSGTDFTLKISRVEAEDLGVYFCSQSTHVPWTFGGGTKLEIKR
- DO11.10 T cell activation assay EC50 [12]: < 1 nM
